In assay [1] the target is recombinant oncofoetal fibronectin FN7B89 (Fn MRGS-7B89-HHHHHH) (human). Description: SPR kinetics, FN7B89 on chip, bivalent fit. (In general: In SPR one partner is held on a chip, and binding of the other changes the refractive index at the surface.)
Assay [2] concerns the target polypeptide including human fibronectin domains 7, ED-B, 8, and 9 (human) (UniProt P02751). Description: SPR.
For assay [3] the target is unchanged. Description: SPR, experiment 2.
The target is the same in assay [4]. Description: SPR, experiment 1; exp. 1.
Assay [5] shares this target. Description: SPR, experiment 1.
Assay [6] has the same target. Description: SPR, experiment 2; exp. 2.
Assay [7] has the same target. Description: SPR, against huBC1.
The target in assay [8] is T1, polypeptide including human fibronectin domains 7, ED-B, 8, and 9 (human, UniProt P02751 1173-1538, limits assumed).
T1 construct: domain: fibronectin domains 7, ED-B, 8, and 9
T1 sequence (P02751 1173-1538 limits assumed): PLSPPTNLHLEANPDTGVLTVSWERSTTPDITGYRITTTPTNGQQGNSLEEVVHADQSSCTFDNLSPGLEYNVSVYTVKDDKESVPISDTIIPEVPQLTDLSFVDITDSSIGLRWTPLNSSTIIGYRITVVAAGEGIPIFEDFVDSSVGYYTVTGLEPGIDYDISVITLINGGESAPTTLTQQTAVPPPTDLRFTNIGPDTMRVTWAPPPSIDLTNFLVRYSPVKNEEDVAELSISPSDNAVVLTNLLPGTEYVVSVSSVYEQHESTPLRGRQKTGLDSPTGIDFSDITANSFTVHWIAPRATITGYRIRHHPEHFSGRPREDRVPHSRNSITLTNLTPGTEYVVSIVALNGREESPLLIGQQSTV
Description: SPR, experiment 1; exp. 1.

The target in assay [9] is T1, polypeptide including human fibronectin …. Description: SPR, experiment 2; exp. 2.
Assay [10] has the same target. Description: SPR, experiment 2.
For assay [11] the target is unchanged. Description: SPR, experiment 1.
Assay [12] addresses recombinant oncofoetal fibronectin FN7B89 (Fn MRGS-7B89-HHHHHH) (human). Description: SPR kinetics, against muBC1.

“And” between values parts separate entries of the source, which are not always exact repeats. Equal values may be shown once.

As a reminder, the koff is the rate constant with which the complex falls apart. Broadly, the kon is the rate constant with which the complex forms.

Sequence of polypeptide including human fibronectin domains 7, ED-B, 8, and 9 (human) (P02751 1173-1538 limits assumed): as above

Turning to “huBC1-huIL12 (humanised BC1 antibody-human IL12 fusion protein) (from UniProt P29460 23-328)”, in assay [1], the Kd came to 17.3 nM, the koff came to 0.00087 s⁻¹ and the association rate constant (kon) turned out to be 50900 M⁻¹ s⁻¹.
With “muBC1 (murine constant regions) (antibody)”, the results for the Kd in assay [2] and in [1] were 686 nM and 377 nM, respectively. Further, the koff in assay [3] was found to be 0.0011 s⁻¹; in assay [1] it was 0.00065 s⁻¹. For the same molecule, the values for the kon in [3] and in [1] were 1650 M⁻¹ s⁻¹ and 1700 M⁻¹ s⁻¹, respectively.
As for “huBC1-muIL12 (HuBC1-g1-M1-muIL12) (from UniProt P43431 23-215; P43432 23-335)”, in assay [1], the Kd was determined as 13.9 nM, the koff was 0.00109 s⁻¹ and the kon worked out at 79500 M⁻¹ s⁻¹.

B1: huBC1-IL12 (BC1-IL12 fusion protein of Example 2) (protein, part only; not given: constant regions and IL-12 subunits, not shown: a dimerising Fc or GST)
heavy, part: EVQLVQSGADVKKPGASVKVSCKASGYTFTNYVMHWVRQAPGQGLEWLGYINPYNDGTQYNERFKGRVTMTGDTSISTAYMELSRLTSDDTAVYYCAREVYGNYIWGNWGQGTLVSVSS
light: EIVLTQSPGTLSLSPGERATLSCSASSSISSNYLHWYQQKPGQAPRLLIYRTSNLASGIPDRFSGSGSGTDFTLTISRLEPEDFAVYYCQQGSSIPFTFGQGTKLEIKRTVAAPSVFIFPPSDEQLKSGTASVVCLLNNFYPREAKVQWKVDNALQSGNSQESVTEQDSKDSTYSLSSTLTLSKADYEKHKVYACEVTHQGLSSPVTKSFNRGEC
B1: the results for the Kd in assay [4] and in assay [6] were 7.6 nM and 8.3 nM, respectively. For the same molecule, the koff in assay [5] amounted to 0.0013 s⁻¹; in assay [3], 0.0016 s⁻¹. For the same molecule, the association rate constant (kon) in assay [5] was 17000 M⁻¹ s⁻¹; in [3], 19000 M⁻¹ s⁻¹. In addition, in [7], the fold tighter binding than the huBC1 antibody alone was > 10 fold and 16 fold.

B2: huBC1 (humanised BC1 antibody, human constant regions) (antibody, V domains shown)
VH: B1 heavy, part
VL: EIVLTQSPGTLSLSPGERATLSCSASSSISSNYLHWYQQKPGQAPRLLIYRTSNLASGIPDRFSGSGSGTDFTLTISRLEPEDFAVYYCQQGSSIPFTFGQGTKLEIK
notes: Only variable domains are tied to the unfused antibody; also called huBC1 antibody; HuBC1 Ab
With B2, the values for the Kd in assay [8], in [9] and in assay [1] were 125 nM, 138 nM and 54 nM, respectively. The koff in [10] came to 0.01 s⁻¹; in [11], 0.0078 s⁻¹; in assay [1], 0.00312 s⁻¹. In addition, the values for the kon in assay [10], in [11] and in assay [1] were 73000 M⁻¹ s⁻¹, 62000 M⁻¹ s⁻¹ and 57600 M⁻¹ s⁻¹, respectively. Moreover, in assay [12], the fold faster off-rate than muBC1 worked out at 5 fold. In addition, the fold faster on-rate than muBC1 in assay [12] was determined as 34 fold.
